Experimental data: article PMC9600919

Target: N-terminally 3× FLAG-tagged IglD from Francisella novicida (Francisella novicida) (UniProt Q7X3J2)
Experiment: cryo-EM structure

Q: “N-terminally 3× FLAG-tagged IglD from Francisella novicida (from UniProt Q7X3J2 1-398) (natural protein)” was tested. Which stoichiometry N did it give?
A: Its stoichiometry N is 3.
